According to patent US20250195658A1 (ST JUDE CHILDREN S RESEARCH HOSPITAL, published 2025):
No end group written: not given here. *: point of attachment. Biotin = O=C1N[C@H]2[C@H](CS[C@H]2CCCCC(=O)*)N1; Ahx = NCCCCCC(=O)O

B1: GRP78-GPcPcPc-CD123-CAR (other)
chain: CTVALPGGYVRVCEFAGSGGSGGSGGSPVPSTPPTNSSSTPPTPSPSPVPSTPPTNSSSTPPTPSPSPVPSTPPTNSSSTPPTPSPSASAAAQVQLQQPGAELVRPGASVKLSCKASGYTFTSYWMNWVKQRPDQGLEWIGRIDPYDSETHYNQKFKDKAILTVDKSSSTAYMQLSSLTSEDSAVYYCARGNWDDYWGQGTTLTVSSGGGGSGGGGSGGGGSDVQITQSPSYLAASPGETITINCRASKSISKDLAWYQEKPGKTNKLLIYSGSTLQSGIPSRFSGSGSGTDFTLTISSLEPEDFAMYYCQQHNKYPYTFGGGTKLEIKSIEVMYPPPYLDNEKSNGTIIHVKGKHLCPSPLFPGPSKPFWVLVVVGGVLACYSLLVTVAFIIFWVRSKRSRLLHSDYMNMTPRRPGPTRKHYQPYAPPRDFAAYRSRVKFSRSADAPAYQQGQNQLYNELNLGRREEYDVLDKRRGRDPEMGGKPRRKNPQEGLYNELQKDKMAEAYSEIGMKGERRRGKGHDGLYQGLSTATKDTYDALHMQALPPR
B2: GRP78-G4S3-CD123-CAR (other)
chain: CTVALPGGYVRVCEFGGGGSGGGGSGGGGSAAAQVQLQQPGAELVRPGASVKLSCKASGYTFTSYWMNWVKQRPDQGLEWIGRIDPYDSETHYNQKFKDKAILTVDKSSSTAYMQLSSLTSEDSAVYYCARGNWDDYWGQGTTLTVSSGGGGSGGGGSGGGGSDVQITQSPSYLAASPGETITINCRASKSISKDLAWYQEKPGKTNKLLIYSGSTLQSGIPSRFSGSGSGTDFTLTISSLEPEDFAMYYCQQHNKYPYTFGGGTKLEIKSIEVMYPPPYLDNEKSNGTIIHVKGKHLCPSPLFPGPSKPFWVLVVVGGVLACYSLLVTVAFIIFWVRSKRSRLLHSDYMNMTPRRPGPTRKHYQPYAPPRDFAAYRSRVKFSRSADAPAYQQGQNQLYNELNLGRREEYDVLDKRRGRDPEMGGKPRRKNPQEGLYNELQKDKMAEAYSEIGMKGERRRGKGHDGLYQGLSTATKDTYDALHMQALPPR
notes: Residues from 510 on (spacer RSGVDSG, T2A, tCD19) are also left out; also called 78.(G4S)3.123; G4S2
B3: GRP78-specific peptide with an N-terminal Biotin tag (Biotin-Ahx-CTVALPGGYVRVC) (peptide)
peptide: {Biotin-Ahx}-CTVALPGGYVRVC
modifications: cysteine pairing not given here
notes: Obtained from Genscript; Detected with Streptavidin PE in a 2-step staining; also called GRP78-biotin; GRP78 peptide

What was measured:
[1] = target: T1, Recombinant Human IL3RA protein conjugated to APC (Creative BioMart, CAT #IL3RA-3248HA) (human, UniProt P26951 19-305, limits assumed, conjugated to APC); assay: flow cytometry of CAR T cells stained with APC-conjugated recombinant human IL3RA (FIG. 2B)
T1 construct: also called recombinant CD123 protein; Recombinant CD123
T1 sequence (looked up): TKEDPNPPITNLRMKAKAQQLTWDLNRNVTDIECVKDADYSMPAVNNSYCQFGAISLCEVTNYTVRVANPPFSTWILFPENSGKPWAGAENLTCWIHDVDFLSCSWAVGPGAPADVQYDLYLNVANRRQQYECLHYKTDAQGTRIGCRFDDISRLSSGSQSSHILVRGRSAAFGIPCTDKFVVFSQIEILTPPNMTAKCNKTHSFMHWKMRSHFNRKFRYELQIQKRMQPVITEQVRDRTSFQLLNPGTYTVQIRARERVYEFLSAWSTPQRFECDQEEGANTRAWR
Procedure: (§1) Flow cytometric analysis. Cells were stained with fluorochrome-conjugated primary antibodies for 30 min at room temperature and washed with FACS buffer (5% FBS in 1×PBS) prior to analysis. Cell surface GRP78 was detected by a GRP78-specific peptide with an N-terminal Biotin tag (Biotin-Ahx-[…]; SEQ ID NO: 126) was obtained from Genscript (Piscataway, NJ) in combination with Streptavidin PE (BioLegend, San Diego, CA. CCAT #405204) using a 2-step staining protocol. Cells were incubated with GRP78 peptide for 30 minutes at room temperature, protected from light. Cells were washed twice prior to staining with additional antibodies. Recombinant CD123 Recombinant Human IL3RA protein conjugated to APC (Creative BioMart, CAT #IL3RA-3248HA) was used to detect CD123 scFv binding. The following antibodies were purchased from BD Biosciences: CCR7 Pacific Blue (BD Pharmigen, Clone G043H7 CAT #353210), CD45RO PerCP-Cy5.5 (BD Pharmigen, Clone UCHL1, CAT #560607), CD123 APC (BD Pharmigen, Clone 7G3, CAT #560087), CD3 BV421 (BD Horizon, Clone SK7, CAT #563797), CD3 BV786 (BD Horizon, Clone SK7, CAT #563800), CD19 PE-Cy7 (BD Pharmigen, Clone HIB19, CAT #560728), CD20 BV650 (BD Horizon, Clone 2H7, CAT #563780). […]

[2] = target: T2, cell surface glucose-regulated-protein 78 (GRP78) (UniProt P11021 19-654, limits assumed); assay: flow cytometry on cell lines, 2-step staining with Streptavidin PE
T2 construct: whole, on cells; also called GRP78 antigen; HSPA5
Procedure: as §1

T2 sequence (P11021 19-654 limits assumed): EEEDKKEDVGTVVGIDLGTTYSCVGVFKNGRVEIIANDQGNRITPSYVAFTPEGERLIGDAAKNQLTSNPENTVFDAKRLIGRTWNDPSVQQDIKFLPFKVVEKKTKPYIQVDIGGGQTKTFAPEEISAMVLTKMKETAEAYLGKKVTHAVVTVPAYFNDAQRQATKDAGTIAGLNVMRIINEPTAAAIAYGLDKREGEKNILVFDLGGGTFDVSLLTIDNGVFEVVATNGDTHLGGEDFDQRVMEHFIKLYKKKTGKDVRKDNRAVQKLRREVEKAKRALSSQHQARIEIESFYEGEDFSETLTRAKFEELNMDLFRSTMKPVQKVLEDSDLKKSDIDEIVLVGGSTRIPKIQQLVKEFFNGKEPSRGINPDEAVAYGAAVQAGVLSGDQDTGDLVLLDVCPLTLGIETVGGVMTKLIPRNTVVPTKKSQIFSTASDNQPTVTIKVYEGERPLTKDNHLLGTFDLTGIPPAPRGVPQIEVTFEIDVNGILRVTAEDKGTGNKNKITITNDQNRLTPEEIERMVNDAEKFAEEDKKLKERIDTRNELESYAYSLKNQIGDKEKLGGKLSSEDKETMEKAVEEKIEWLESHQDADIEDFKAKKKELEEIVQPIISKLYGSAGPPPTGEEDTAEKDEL

Row | Binder | % of transduced T cells positive for recombinant CD123 protein [1] [%] | binding result [2]
1 | B1 | 83.6 | –
2 | B2 | 87.5 | –
3 | B3 | – | binds
